Reference: the supplement of paper PMC9112550, “Optimization of the antimicrobial peptide Bac7 by deep mutational scanning” (BMC Biology, 2022)

System: Escherichia coli TOP10
Experiment: shrunken log2 fold change of peptide-encoding DNA abundance (4.5 h post-induction vs induction); higher = less antimicrobial activity (less host growth inhibition)
Details: time post-induction: 4.5 h; library: site-saturation at positions 5, 18, 19, 20
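Further: peptides expressed intracellularly from a pBAD plasmid library in pooled LB shake-flask culture, induced with 0.3% L-arabinose, DNA abundance read by NGS, three biological replicates, DESeq2 with apeglm shrinkage.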

Sequence | shrunken log2 fold change
RRIRFRPPRLPRPRPRPEGDPRP | 0.0402
RRIRFRPPRLPRPRPRPEHFPRP | -0.213
RRIRFRPPRLPRPRPRPEHMPRP | 0.0146
RRIRFRPPRLPRPRPRPEISPRP | -0.048
RRIRFRPPRLPRPRPRPEKDPRP | -0.227
RRIRFRPPRLPRPRPRPELLPRP | 0.146
RRIRFRPPRLPRPRPRPELNPRP | 0.164
RRIRFRPPRLPRPRPRPEMSPRP | 0.000731
RRIRFRPPRLPRPRPRPENGPRP | -0.166
RRIRFRPPRLPRPRPRPERFPRP | -0.104
RRIRFRPPRLPRPRPRPERPPRP | 0.415
RRIRFRPPRLPRPRPRPESWPRP | 0.53
RRIRFRPPRLPRPRPRPETIPRP | -0.103
RRIRFRPPRLPRPRPRPEVAPRP | -0.088
RRIRFRPPRLPRPRPRPEVCPRP | 0.00109
RRIRFRPPRLPRPRPRPEVDPRP | 0.084
RRIRFRPPRLPRPRPRPEVMPRP | -0.0905
RRIRFRPPRLPRPRPRPEVRPRP | 0.14
RRIRFRPPRLPRPRPRPEYEPRP | -0.211
RRIRFRPPRLPRPRPRPEYPPRP | -0.617
RRIRFRPPRLPRPRPRPFAGPRP | 0.0728
RRIRFRPPRLPRPRPRPFAWPRP | -0.0558
RRIRFRPPRLPRPRPRPFCFPRP | -0.343
RRIRFRPPRLPRPRPRPFCRPRP | -0.316
RRIRFRPPRLPRPRPRPFDYPRP | -0.111

Sequence | shrunken log2 fold change
RRIRFRPPRLPRPRPRPFEKPRP | -0.0749
RRIRFRPPRLPRPRPRPFESPRP | 0.0452
RRIRFRPPRLPRPRPRPFFKPRP | -0.251
RRIRFRPPRLPRPRPRPFFLPRP | -0.32
RRIRFRPPRLPRPRPRPFFNPRP | -0.313
RRIRFRPPRLPRPRPRPFGGPRP | -0.0524
RRIRFRPPRLPRPRPRPFLWPRP | -0.0874
RRIRFRPPRLPRPRPRPFMTPRP | -0.333
RRIRFRPPRLPRPRPRPFNKPRP | -0.729
RRIRFRPPRLPRPRPRPFNSPRP | -0.0372
RRIRFRPPRLPRPRPRPFPDPRP | -0.137
RRIRFRPPRLPRPRPRPFPYPRP | -0.445
RRIRFRPPRLPRPRPRPFQVPRP | -0.309
RRIRFRPPRLPRPRPRPFQWPRP | -0.507
RRIRFRPPRLPRPRPRPFRCPRP | -0.227
RRIRFRPPRLPRPRPRPFRRPRP | -0.0629
RRIRFRPPRLPRPRPRPFSEPRP | -0.0573
RRIRFRPPRLPRPRPRPFVFPRP | -0.454
RRIRFRPPRLPRPRPRPFVHPRP | -0.728
RRIRFRPPRLPRPRPRPFWNPRP | -0.00687
RRIRFRPPRLPRPRPRPFYEPRP | -0.886
RRIRFRPPRLPRPRPRPGAIPRP | -0.244
RRIRFRPPRLPRPRPRPGCMPRP | -0.178
RRIRFRPPRLPRPRPRPGCWPRP | 0.524
RRIRFRPPRLPRPRPRPGDAPRP | 0.158

Sequence | shrunken log2 fold change
RRIRFRPPRLPRPRPRPGDPPRP | 0.566
RRIRFRPPRLPRPRPRPGDWPRP | 0.666
RRIRFRPPRLPRPRPRPGEPPRP | 0.118
RRIRFRPPRLPRPRPRPGEYPRP | -0.114
RRIRFRPPRLPRPRPRPGFGPRP | 0.337
RRIRFRPPRLPRPRPRPGFNPRP | -0.22
RRIRFRPPRLPRPRPRPGHAPRP | 0.192
RRIRFRPPRLPRPRPRPGHFPRP | -0.24
RRIRFRPPRLPRPRPRPGIQPRP | -0.11
RRIRFRPPRLPRPRPRPGLDPRP | -0.0186
RRIRFRPPRLPRPRPRPGLNPRP | 0.207
RRIRFRPPRLPRPRPRPGMQPRP | 0.237
RRIRFRPPRLPRPRPRPGPEPRP | 0.103
RRIRFRPPRLPRPRPRPGPTPRP | 0.404
RRIRFRPPRLPRPRPRPGQAPRP | 0.0631
RRIRFRPPRLPRPRPRPGQYPRP | -0.0815
RRIRFRPPRLPRPRPRPGRGPRP | 0.607
RRIRFRPPRLPRPRPRPGRYPRP | -0.0275
RRIRFRPPRLPRPRPRPGTNPRP | -0.254
RRIRFRPPRLPRPRPRPGVHPRP | -0.0827
RRIRFRPPRLPRPRPRPGVWPRP | 0.507
RRIRFRPPRLPRPRPRPGWFPRP | 0.237
RRIRFRPPRLPRPRPRPGYQPRP | -0.0555
RRIRFRPPRLPRPRPRPHAGPRP | -0.024
RRIRFRPPRLPRPRPRPHCIPRP | -0.457
